Experimental data reported in article PMC11838012, “TRAM-LAG1-CLN8 family proteins are acyltransferases regulating phospholipid composition” (Science Advances, 2025).

Key:
Experiment in all cases: LC-MS/MS initial-rate acyltransferase assay
TLCD1 = target: T1, TLCD1 (Homo sapiens, UniProt Q96CP7); type: biochemical; conditions: 100 uM oleoyl-CoA; pH 7.4, 30 C, 0.05% LMNG; shares the LPE site
T1 construct: full length, C-terminal FLAG and Strep tags kept; expressed in Flp-In T-REx 293 cells; purified in LMNG; monomer in micelles
T1 sequence (Q96CP7 36-247): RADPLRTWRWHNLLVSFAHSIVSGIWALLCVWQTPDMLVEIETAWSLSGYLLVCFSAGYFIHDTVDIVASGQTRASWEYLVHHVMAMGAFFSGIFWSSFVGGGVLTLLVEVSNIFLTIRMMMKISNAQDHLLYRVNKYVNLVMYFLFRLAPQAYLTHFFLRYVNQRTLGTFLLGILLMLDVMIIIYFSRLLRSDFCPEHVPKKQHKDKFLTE

[1] = substrate: CCCCCCCC/C=C\CCCCCCCC(=O)OC[C@@H](O)COP(=O)(O)OCCN; type: biochemical, Caenorhabditis elegans; conditions: 100 uM myristoyl-CoA, pH 7.4, 30 C, 0.05% LMNG
[2] = substrate: CCCCCCCC/C=C\CCCCCCCC(=O)OC[C@@H](O)COP(=O)(O)OCCN; type: biochemical, Saccharomyces cerevisiae; conditions: 100 uM palmitoleoyl-CoA, pH 7.4, 30 C, 0.05% LMNG
[3] = substrate: CCCCCCCC/C=C\CCCCCCCC(=O)OC[C@@H](O)COP(=O)(O)OCCN; type: biochemical, Homo sapiens; conditions: 100 uM oleoyl-CoA, pH 7.4, 30 C, 0.05% LMNG

For `Cc1ncc(C[n+]2csc(CCO)c2C)c(N)n1` [thiamine], the “LC-MS/MS initial-rate acyltransferase assay” value (TLCD1) was “a linear increase in the initial reaction rate (Vo) even at millimolar thiamine levels”.

B1: FLD-1 (Caenorhabditis elegans) (protein)
chain: MRQLAELLTDLLGPVPTMFLWVIVSFAFFRALQFIVRWYLFGKWTWPNFNFFDIRNRIRRRRRGGQEAENTENPPENEAEAGEQVEQEPEPDSRDLSAIPPNKKWRISNECVSLFHSVISGLWAAYALLYYKQLVQDLVNYRCDVAINLVLMSAGYLFHDLVDLLVNEQSARIIELLFHHVVVLSAFAVTMFFNRFLGVVVFGLLMELNSIFLHSRSLLNLYGVDKKSPSFRIIALLNMVTLFAFRLCVSAYLVYFVVVSIPDLEWYVSIINGLVIASLASTNTVLTYRLLAADGLLGSRRTRRTPAATAETQVGDVESGPLRTQVEDEDHHTIGVQTIHGTTEDATQTV
notes: codon-optimised, C-terminal His tag cut off by Factor Xa; expressed in S. cerevisiae BJ2168; purified in LMNG
Work on B1 yielded a Km [1] of 10.1 µM and a kcat [1] of 0.608 s⁻¹.

B2: YPR114w (Saccharomyces cerevisiae S288C) (protein)
chain: MDVLLSLPQPELFKTTVIPFLANRNIIKSEAILSNLHSIFYVAIFYHIWFLFGKWILFPHLVKWKLDYDQKHNVKKDEKTTSERQAQHYKKKYTSLINQSSVHLISLLQSIVVLYYSLKFLLDPKASAEPYQTSHSRVFTENRDTQVICIFAIGYFVWDIYISTMYSTFPFVVHGIISTVVFCIGLKPYIQYYAPVFLMFELSNPSLNFRWFGIKFLPQKSKFCSLLLLLNNLTLMVVFFAARIAWGWFQIGKLCYDFYQVRNEPGFLVFDTIVILAGNFVLDILNVIWFSTMVSVAAKVLKKGESVDKVTKNEQ
notes: full length, C-terminal His tag cut off by Factor Xa; expressed in S. cerevisiae BJ2168; purified in LMNG
Molecule B2 has a Km [2] of 16.7 µM and a kcat [2] of 2.225 s⁻¹.

B3: TLCD1 (Homo sapiens) (protein)
chain: RADPLRTWRWHNLLVSFAHSIVSGIWALLCVWQTPDMLVEIETAWSLSGYLLVCFSAGYFIHDTVDIVASGQTRASWEYLVHHVMAMGAFFSGIFWSSFVGGGVLTLLVEVSNIFLTIRMMMKISNAQDHLLYRVNKYVNLVMYFLFRLAPQAYLTHFFLRYVNQRTLGTFLLGILLMLDVMIIIYFSRLLRSDFCPEHVPKKQHKDKFLTE
notes: full length, C-terminal FLAG and Strep tags kept; expressed in Flp-In T-REx 293 cells; purified in LMNG; monomer in micelles
B3 gave a Km [3] of 67.5 µM and a kcat [3] of 0.348 s⁻¹.
